Target: T1, CS1 recombinant protein (SEQ ID NO: 97), plate-bound
T1 chain: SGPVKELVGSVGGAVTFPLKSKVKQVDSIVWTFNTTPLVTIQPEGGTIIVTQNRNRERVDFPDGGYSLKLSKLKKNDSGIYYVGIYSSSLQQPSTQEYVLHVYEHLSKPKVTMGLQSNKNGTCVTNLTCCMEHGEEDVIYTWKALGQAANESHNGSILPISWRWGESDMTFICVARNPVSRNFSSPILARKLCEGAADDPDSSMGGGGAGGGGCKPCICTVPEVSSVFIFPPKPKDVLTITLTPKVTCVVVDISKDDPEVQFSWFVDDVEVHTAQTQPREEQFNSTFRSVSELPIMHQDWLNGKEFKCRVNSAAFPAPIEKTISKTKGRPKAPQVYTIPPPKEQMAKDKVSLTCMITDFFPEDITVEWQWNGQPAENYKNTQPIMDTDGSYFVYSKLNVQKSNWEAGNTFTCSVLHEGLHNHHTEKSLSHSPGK
Test: cell-based or functional assay

B1: CS1-specific second generation CAR (SEQ ID NO: 96) on T cells (other)
chain: QVQLQQPGAELVRPGASVKLSCKASGYSFTTYWMNWVKQRPGQGLEWIGMIHPSDSETRLNQKFKDKATLTVDKSSSTAYMQLSSPTSEDSAVYYCARSTMIATRAMDYWGQGTSVTVSSGGGGSGGGGSGGGGSDIVMTQSQKSMSTSVGDRVSITCKASQDVITGVAWYQQKPGQSPKLLIYSASYRYTGVPDRFTGSGSGTDFTFTISNVQAEDLAVYYCQQHYSTPLTFGAGTKLELKTTTPAPRPPTPAPTIASQPLSLRPEACRPAAGGAVHTRGLDFACDIYIWAPLAGTCGVLLLSLVITLYCKRGRKKLLYIFKQPFMRPVQTTQEEDGCSCRFPEEEEGGCELRVKFSRSADAPAYQQGQNQLYNELNLGRREEYDVLDKRRGRDPEMGGKPRRKNPQEGLYNELQKDKMAEAYSEIGMKGERRRGKGHDGLYQGLSTATKDTYDALHMQALPPR
RNA-seq of CAR+ T cells 24 h after activation on plate-bound CS1 protein versus unactivated cells: genes induced (fold change greater than 5): 159 genes

From patent US20250281613A1 (CELLECTIS S A, published 2025)
